Results: patent publication US20180155451A1 (published 2018)

Assays:
[1] = target: T1, FcγRIIIa extracellular domain with C-terminal His tag (human, UniProt P08637 17-208); test: SPR; He/Con_3a over He/Con_2b (FcγRIIb)
T1 construct: extracellular domain; also called 3a; FcgRIIIa

[2] = target: T1, FcγRIIIa extracellular domain with …; test: SPR, relative to GpH7-A5/GpH7-B3/GpL16-k0
[3] = target: T2, FcγRIIb extracellular domain with C-terminal His tag (human, UniProt P31994 43-217); test: SPR, relative to GpH7-A5/GpH7-B3/GpL16-k0
T2 construct: extracellular domain; also called 2b; FcgRIIb
T2 sequence (looked up): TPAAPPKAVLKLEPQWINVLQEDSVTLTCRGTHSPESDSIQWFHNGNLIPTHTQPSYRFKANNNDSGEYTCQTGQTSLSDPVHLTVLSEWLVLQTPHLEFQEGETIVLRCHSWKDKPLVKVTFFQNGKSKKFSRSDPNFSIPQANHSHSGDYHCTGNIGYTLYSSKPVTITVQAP

T1 sequence (P08637 17-208): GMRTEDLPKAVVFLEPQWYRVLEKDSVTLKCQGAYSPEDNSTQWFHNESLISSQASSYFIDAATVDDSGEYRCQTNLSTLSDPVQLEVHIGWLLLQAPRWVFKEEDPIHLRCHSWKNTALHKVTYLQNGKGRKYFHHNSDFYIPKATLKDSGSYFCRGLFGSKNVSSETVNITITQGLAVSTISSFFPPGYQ

He_3a/2b (IIIa/IIb) [1] | He/Con_3a [2] | He/Con_2b [3] | Binder
1.95 ratio | 37.1 control=100 | 19 control=100 | GpH7-A5/GpH7-B3 variant G236_05P/GpL16-k0 (antibody, human IgG1, kappa, He Ab: alteration in one H chain only; also called He Ab) heavy 1: not shown heavy 2: not shown light: DIVMTQSPLSLPVTPGEPASISCQASESLVHSNRNTYLHWYLQKPGQSPQLLIYKVSNRFSGVPDRFSGSGSGTDFTLKISRVEAEDVGVYYCSQNTHVPPTFGQGTKVEIERTVAAPSVFIFPPSDEQLKSGTASVVCLLNNFYPREAKVQWKVDNALQSGNSQESVTEQDSKDSTYSLSSTLTLSKADYEKHKVYACEVTHQGLSSPVTKSFNRGEC
1.93 ratio | 59.7 control=100 | 31 control=100 | GpH7-A5/GpH7-B3 variant G236_07I/GpL16-k0 (antibody, human IgG1, kappa, He Ab: alteration in one H chain only; also called He Ab) heavy 1: not shown heavy 2: not shown light: DIVMTQSPLSLPVTPGEPASISCQASESLVHSNRNTYLHWYLQKPGQSPQLLIYKVSNRFSGVPDRFSGSGSGTDFTLKISRVEAEDVGVYYCSQNTHVPPTFGQGTKVEIERTVAAPSVFIFPPSDEQLKSGTASVVCLLNNFYPREAKVQWKVDNALQSGNSQESVTEQDSKDSTYSLSSTLTLSKADYEKHKVYACEVTHQGLSSPVTKSFNRGEC
1.21 ratio | 32.5 control=100 | 26.8 control=100 | GpH7-A5/GpH7-B3 variant G236_08L/GpL16-k0 (antibody, human IgG1, kappa, He Ab: alteration in one H chain only; also called He Ab) heavy 1: not shown heavy 2: not shown light: DIVMTQSPLSLPVTPGEPASISCQASESLVHSNRNTYLHWYLQKPGQSPQLLIYKVSNRFSGVPDRFSGSGSGTDFTLKISRVEAEDVGVYYCSQNTHVPPTFGQGTKVEIERTVAAPSVFIFPPSDEQLKSGTASVVCLLNNFYPREAKVQWKVDNALQSGNSQESVTEQDSKDSTYSLSSTLTLSKADYEKHKVYACEVTHQGLSSPVTKSFNRGEC
1.84 ratio | 12.5 control=100 | 6.8 control=100 | GpH7-A5/GpH7-B3 variant G236_12R/GpL16-k0 (antibody, human IgG1, kappa, He Ab: alteration in one H chain only; also called He Ab) heavy 1: not shown heavy 2: not shown light: DIVMTQSPLSLPVTPGEPASISCQASESLVHSNRNTYLHWYLQKPGQSPQLLIYKVSNRFSGVPDRFSGSGSGTDFTLKISRVEAEDVGVYYCSQNTHVPPTFGQGTKVEIERTVAAPSVFIFPPSDEQLKSGTASVVCLLNNFYPREAKVQWKVDNALQSGNSQESVTEQDSKDSTYSLSSTLTLSKADYEKHKVYACEVTHQGLSSPVTKSFNRGEC
3.06 ratio | 121 control=100 | 39.5 control=100 | GpH7-A5/GpH7-B3 variant G236_15Y/GpL16-k0 (antibody, human IgG1, kappa, He Ab: alteration in one H chain only; also called He Ab) heavy 1: not shown heavy 2: not shown light: DIVMTQSPLSLPVTPGEPASISCQASESLVHSNRNTYLHWYLQKPGQSPQLLIYKVSNRFSGVPDRFSGSGSGTDFTLKISRVEAEDVGVYYCSQNTHVPPTFGQGTKVEIERTVAAPSVFIFPPSDEQLKSGTASVVCLLNNFYPREAKVQWKVDNALQSGNSQESVTEQDSKDSTYSLSSTLTLSKADYEKHKVYACEVTHQGLSSPVTKSFNRGEC
1.54 ratio | 43.1 control=100 | 27.9 control=100 | GpH7-A5/GpH7-B3 variant G236_16H/GpL16-k0 (antibody, human IgG1, kappa, He Ab: alteration in one H chain only; also called He Ab) heavy 1: not shown heavy 2: not shown light: DIVMTQSPLSLPVTPGEPASISCQASESLVHSNRNTYLHWYLQKPGQSPQLLIYKVSNRFSGVPDRFSGSGSGTDFTLKISRVEAEDVGVYYCSQNTHVPPTFGQGTKVEIERTVAAPSVFIFPPSDEQLKSGTASVVCLLNNFYPREAKVQWKVDNALQSGNSQESVTEQDSKDSTYSLSSTLTLSKADYEKHKVYACEVTHQGLSSPVTKSFNRGEC
2.33 ratio | 135 control=100 | 58.2 control=100 | GpH7-A5/GpH7-B3 variant G236_20W/GpL16-k0 (antibody, human IgG1, kappa, He Ab: alteration in one H chain only; also called He Ab) heavy 1: not shown heavy 2: not shown light: DIVMTQSPLSLPVTPGEPASISCQASESLVHSNRNTYLHWYLQKPGQSPQLLIYKVSNRFSGVPDRFSGSGSGTDFTLKISRVEAEDVGVYYCSQNTHVPPTFGQGTKVEIERTVAAPSVFIFPPSDEQLKSGTASVVCLLNNFYPREAKVQWKVDNALQSGNSQESVTEQDSKDSTYSLSSTLTLSKADYEKHKVYACEVTHQGLSSPVTKSFNRGEC
1.22 ratio | 80.3 control=100 | 65.7 control=100 | GpH7-A5/GpH7-B3 variant H268_06M/GpL16-k0 (antibody, human IgG1, kappa, He Ab: alteration in one H chain only; also called He Ab) heavy 1: not shown heavy 2: not shown light: DIVMTQSPLSLPVTPGEPASISCQASESLVHSNRNTYLHWYLQKPGQSPQLLIYKVSNRFSGVPDRFSGSGSGTDFTLKISRVEAEDVGVYYCSQNTHVPPTFGQGTKVEIERTVAAPSVFIFPPSDEQLKSGTASVVCLLNNFYPREAKVQWKVDNALQSGNSQESVTEQDSKDSTYSLSSTLTLSKADYEKHKVYACEVTHQGLSSPVTKSFNRGEC
1.25 ratio | 91.4 control=100 | 73.1 control=100 | GpH7-A5/GpH7-B3 variant L234_03V/GpL16-k0 (antibody, human IgG1, kappa, He Ab: alteration in one H chain only; also called He Ab) heavy 1: not shown heavy 2: not shown light: DIVMTQSPLSLPVTPGEPASISCQASESLVHSNRNTYLHWYLQKPGQSPQLLIYKVSNRFSGVPDRFSGSGSGTDFTLKISRVEAEDVGVYYCSQNTHVPPTFGQGTKVEIERTVAAPSVFIFPPSDEQLKSGTASVVCLLNNFYPREAKVQWKVDNALQSGNSQESVTEQDSKDSTYSLSSTLTLSKADYEKHKVYACEVTHQGLSSPVTKSFNRGEC
1.21 ratio | 88.1 control=100 | 72.9 control=100 | GpH7-A5/GpH7-B3 variant L234_05P/GpL16-k0 (antibody, human IgG1, kappa, He Ab: alteration in one H chain only; also called He Ab) heavy 1: not shown heavy 2: not shown light: DIVMTQSPLSLPVTPGEPASISCQASESLVHSNRNTYLHWYLQKPGQSPQLLIYKVSNRFSGVPDRFSGSGSGTDFTLKISRVEAEDVGVYYCSQNTHVPPTFGQGTKVEIERTVAAPSVFIFPPSDEQLKSGTASVVCLLNNFYPREAKVQWKVDNALQSGNSQESVTEQDSKDSTYSLSSTLTLSKADYEKHKVYACEVTHQGLSSPVTKSFNRGEC
1.27 ratio | 103 control=100 | 80.9 control=100 | GpH7-A5/GpH7-B3 variant L234_07I/GpL16-k0 (antibody, human IgG1, kappa, He Ab: alteration in one H chain only; also called He Ab) heavy 1: not shown heavy 2: not shown light: DIVMTQSPLSLPVTPGEPASISCQASESLVHSNRNTYLHWYLQKPGQSPQLLIYKVSNRFSGVPDRFSGSGSGTDFTLKISRVEAEDVGVYYCSQNTHVPPTFGQGTKVEIERTVAAPSVFIFPPSDEQLKSGTASVVCLLNNFYPREAKVQWKVDNALQSGNSQESVTEQDSKDSTYSLSSTLTLSKADYEKHKVYACEVTHQGLSSPVTKSFNRGEC
1.88 ratio | 30.5 control=100 | 16.2 control=100 | GpH7-A5/GpH7-B3 variant L234_11K/GpL16-k0 (antibody, human IgG1, kappa, He Ab: alteration in one H chain only; also called He Ab) heavy 1: not shown heavy 2: not shown light: DIVMTQSPLSLPVTPGEPASISCQASESLVHSNRNTYLHWYLQKPGQSPQLLIYKVSNRFSGVPDRFSGSGSGTDFTLKISRVEAEDVGVYYCSQNTHVPPTFGQGTKVEIERTVAAPSVFIFPPSDEQLKSGTASVVCLLNNFYPREAKVQWKVDNALQSGNSQESVTEQDSKDSTYSLSSTLTLSKADYEKHKVYACEVTHQGLSSPVTKSFNRGEC
1.95 ratio | 36.9 control=100 | 18.9 control=100 | GpH7-A5/GpH7-B3 variant L234_12R/GpL16-k0 (antibody, human IgG1, kappa, He Ab: alteration in one H chain only; also called He Ab) heavy 1: not shown heavy 2: not shown light: DIVMTQSPLSLPVTPGEPASISCQASESLVHSNRNTYLHWYLQKPGQSPQLLIYKVSNRFSGVPDRFSGSGSGTDFTLKISRVEAEDVGVYYCSQNTHVPPTFGQGTKVEIERTVAAPSVFIFPPSDEQLKSGTASVVCLLNNFYPREAKVQWKVDNALQSGNSQESVTEQDSKDSTYSLSSTLTLSKADYEKHKVYACEVTHQGLSSPVTKSFNRGEC
1.35 ratio | 130 control=100 | 96.3 control=100 | GpH7-A5/GpH7-B3 variant L234_15Y/GpL16-k0 (antibody, human IgG1, kappa, He Ab: alteration in one H chain only; also called He Ab) heavy 1: not shown heavy 2: not shown light: DIVMTQSPLSLPVTPGEPASISCQASESLVHSNRNTYLHWYLQKPGQSPQLLIYKVSNRFSGVPDRFSGSGSGTDFTLKISRVEAEDVGVYYCSQNTHVPPTFGQGTKVEIERTVAAPSVFIFPPSDEQLKSGTASVVCLLNNFYPREAKVQWKVDNALQSGNSQESVTEQDSKDSTYSLSSTLTLSKADYEKHKVYACEVTHQGLSSPVTKSFNRGEC
1.34 ratio | 79.5 control=100 | 59.4 control=100 | GpH7-A5/GpH7-B3 variant L234_16H/GpL16-k0 (antibody, human IgG1, kappa, He Ab: alteration in one H chain only; also called He Ab) heavy 1: not shown heavy 2: not shown light: DIVMTQSPLSLPVTPGEPASISCQASESLVHSNRNTYLHWYLQKPGQSPQLLIYKVSNRFSGVPDRFSGSGSGTDFTLKISRVEAEDVGVYYCSQNTHVPPTFGQGTKVEIERTVAAPSVFIFPPSDEQLKSGTASVVCLLNNFYPREAKVQWKVDNALQSGNSQESVTEQDSKDSTYSLSSTLTLSKADYEKHKVYACEVTHQGLSSPVTKSFNRGEC
1.32 ratio | 79.8 control=100 | 60.3 control=100 | GpH7-A5/GpH7-B3 variant L234_19Q/GpL16-k0 (antibody, human IgG1, kappa, He Ab: alteration in one H chain only; also called He Ab) heavy 1: not shown heavy 2: not shown light: DIVMTQSPLSLPVTPGEPASISCQASESLVHSNRNTYLHWYLQKPGQSPQLLIYKVSNRFSGVPDRFSGSGSGTDFTLKISRVEAEDVGVYYCSQNTHVPPTFGQGTKVEIERTVAAPSVFIFPPSDEQLKSGTASVVCLLNNFYPREAKVQWKVDNALQSGNSQESVTEQDSKDSTYSLSSTLTLSKADYEKHKVYACEVTHQGLSSPVTKSFNRGEC
1.66 ratio | 58.8 control=100 | 35.4 control=100 | GpH7-A5/GpH7-B3 variant L235_01G/GpL16-k0 (antibody, human IgG1, kappa, He Ab: alteration in one H chain only; also called He Ab) heavy 1: not shown heavy 2: not shown light: DIVMTQSPLSLPVTPGEPASISCQASESLVHSNRNTYLHWYLQKPGQSPQLLIYKVSNRFSGVPDRFSGSGSGTDFTLKISRVEAEDVGVYYCSQNTHVPPTFGQGTKVEIERTVAAPSVFIFPPSDEQLKSGTASVVCLLNNFYPREAKVQWKVDNALQSGNSQESVTEQDSKDSTYSLSSTLTLSKADYEKHKVYACEVTHQGLSSPVTKSFNRGEC
1.48 ratio | 98 control=100 | 66.4 control=100 | GpH7-A5/GpH7-B3 variant L235_03V/GpL16-k0 (antibody, human IgG1, kappa, He Ab: alteration in one H chain only; also called He Ab) heavy 1: not shown heavy 2: not shown light: DIVMTQSPLSLPVTPGEPASISCQASESLVHSNRNTYLHWYLQKPGQSPQLLIYKVSNRFSGVPDRFSGSGSGTDFTLKISRVEAEDVGVYYCSQNTHVPPTFGQGTKVEIERTVAAPSVFIFPPSDEQLKSGTASVVCLLNNFYPREAKVQWKVDNALQSGNSQESVTEQDSKDSTYSLSSTLTLSKADYEKHKVYACEVTHQGLSSPVTKSFNRGEC
1.3 ratio | 71.1 control=100 | 54.7 control=100 | GpH7-A5/GpH7-B3 variant L235_05P/GpL16-k0 (antibody, human IgG1, kappa, He Ab: alteration in one H chain only; also called He Ab) heavy 1: not shown heavy 2: not shown light: DIVMTQSPLSLPVTPGEPASISCQASESLVHSNRNTYLHWYLQKPGQSPQLLIYKVSNRFSGVPDRFSGSGSGTDFTLKISRVEAEDVGVYYCSQNTHVPPTFGQGTKVEIERTVAAPSVFIFPPSDEQLKSGTASVVCLLNNFYPREAKVQWKVDNALQSGNSQESVTEQDSKDSTYSLSSTLTLSKADYEKHKVYACEVTHQGLSSPVTKSFNRGEC
